Data as given in patent publication US20260216326A1 (PROMETHEUS BIOSCIENCES, published 2026).
Changes are numbered by the printed parent chain. Blank lines part the entries; values can stand above or below the binder they belong to.

Target: T1, human TL1A (Fitzgerald #30R-AT070) (human, UniProt O95150 72-251, limits assumed)
T1 construct: Coated on the ELISA plate at 1 ug/mL; also called TNFSF15
T1 sequence (looked up): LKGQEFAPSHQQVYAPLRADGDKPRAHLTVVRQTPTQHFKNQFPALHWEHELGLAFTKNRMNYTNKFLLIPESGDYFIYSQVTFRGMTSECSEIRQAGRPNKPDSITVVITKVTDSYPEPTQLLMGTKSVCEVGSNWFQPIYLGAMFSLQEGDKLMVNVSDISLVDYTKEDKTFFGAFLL
Assay: ELISA titration, coated human TL1A, culture supernatant

B1: A118 (antibody, human IgG1, V domains shown)
VH: QVQLVQSGAEVKKPGASVKVSCKASGFDIQDTYMHWVRQAPGQGLEWIGRIDPASGHIKYDPKFQGRVTMTRDTSTSTVYMELSSLRSEDTAVYYCARSGGLPDWWGQGTTVTVSS
VL: EIVLTQSPGTLSLSPGERATLSCRASSSVSYMYWYQQKPGQAPRPWIYATSNLASGIPDRFSGSGSGTDFTLTISRLEPEDFAVYYCQQWEGNPRTFGGGTKLEIK
notes: human IgG1/kappa (pFuse vectors), culture supernatant
- Kd: 0.083 nM

B2: A37 (antibody, human IgG1, V domains shown)
VH: QVQLVQSGAEVKKPGASVKVSCKASGFDIQDTYMHWVKQRPGQGLEWMGRIDPASGHTKYDPKFQVRATITTDTSTSTAYLELSSLRSEDTAVYYCARSGGLPDVWGQGTTVTVSS
VL: B1 VL with L13A, L21M, I57V, F70Y, L77V, E91S
notes: as for B1
- Kd: 0.034 nM

B3: A35 (antibody, human IgG1, V domains shown)
VH: B2 VH with R40A, M48I
VL: B1 VL with L13A, L21M, I57V, F70Y, L77V, E91S
notes: as for B1
- Kd: 0.072 nM

B4: A40 (antibody, human IgG1, V domains shown)
VH: B2 VH with M48I, A79V, L81M
VL: B1 VL with L13A, L21M, I57V, F70Y, L77V, E91S
notes: as for B1
- Kd: < 0.05 nM

B6: A34 (antibody, human IgG1, V domains shown)
VH: B2 VH with K38R, M48I
VL: B1 VL with L13A, L21M, I57V, F70Y, L77V, E91S
notes: as for B1
- Kd: < 0.05 nM

B7: A30 (antibody, human IgG1, V domains shown)
VH: B2 VH with M48I
VL: B1 VL with P45L, W46L, E91K
notes: as for B1
- Kd: 0.077 nM

B8: A38 (antibody, human IgG1, V domains shown)
VH: B2 VH with M48I, A79V
VL: B1 VL with L13A, L21M, I57V, F70Y, L77V, E91S
notes: as for B1
- Kd: 0.103 nM

B9: A43 (antibody, human IgG1, V domains shown)
VH: B2 VH with M48I, T72R
VL: B1 VL with L13A, L21M, I57V, F70Y, L77V, E91S
notes: as for B1
- Kd: 0.051 nM

B11: A36 (antibody, human IgG1, V domains shown)
VH: B2 VH with K38R, R40A, M48I
VL: B1 VL with L13A, L21M, I57V, F70Y, L77V, E91S
notes: as for B1
- Kd: < 0.05 nM

B12: A42 (antibody, human IgG1, V domains shown)
VH: B2 VH with M48I, I70M
VL: B1 VL with L13A, L21M, I57V, F70Y, L77V, E91S
notes: as for B1
- Kd: < 0.05 nM

B14: A136 (antibody, human IgG1, V domains shown)
VH: B1 VH with R38K, I48M, D52E
VL: B1 VL with W46L, E91K
notes: as for B1
- Kd: 0.053 nM

B16: A150 (antibody, human IgG1, V domains shown)
VH: B1 VH with I48M, D52E, V68A
VL: B1 VL with W46L
notes: as for B1
- Kd: 0.059 nM

B19: A149 (antibody, human IgG1, V domains shown)
VH: B1 VH with I48M, D52E, G66V, V68A
VL: B1 VL with W46L
notes: as for B1
- Kd: 0.048 nM

B20: A126 (antibody, human IgG1, V domains shown)
VH: B2 VH with A68V, T72R
VL: B1 VL with P45L, W46L, E91K
notes: as for B1
- Kd: 0.123 nM

B23: A125 (antibody, human IgG1, V domains shown)
VH: B2 VH with T72R
VL: B1 VL with P45L, W46L, E91K
notes: as for B1
- Kd: 0.116 nM

B25: A137 (antibody, human IgG1, V domains shown)
VH: B1 VH with I48M, D52E, G66V
VL: B1 VL with P45L, W46L, E91S, G92R
notes: as for B1
- Kd: 0.05 nM

B27: A127 (antibody, human IgG1, V domains shown)
VH: B2 VH with A68V
VL: B1 VL with P45L, W46L, E91K
notes: as for B1
- Kd: 0.07 nM

B28: A143 (antibody, human IgG1, V domains shown)
VH: B1 VH with I48M, D52E
VL: B1 VL with P45L, W46L
notes: as for B1
- Kd: 0.085 nM

B30: A132 (antibody, human IgG1, V domains shown)
VH: B1 VH with I48M, D52E, V68A
VL: B1 VL with W46L, E91K
notes: as for B1
- Kd: 0.062 nM

B32: A141 (antibody, human IgG1, V domains shown)
VH: B2 VH with K38R, A68V, T72R
VL: B1 VL with P45L, W46L, E91S, G92R
notes: as for B1
- Kd: 0.108 nM

B33: A130 (antibody, human IgG1, V domains shown)
VH: B1 VH with I48M, D52E, G66V
VL: B1 VL
notes: as for B1
- Kd: 0.075 nM

B34: A155 (antibody, human IgG1, V domains shown)
VH: B1 VH with I48M, D52E, G66V
VL: B1 VL
notes: as for B1
- Kd: 0.067 nM

B35: A152 (antibody, human IgG1, V domains shown)
VH: B1 VH with I48M, D52E, V68A, M70I, R72T
VL: B1 VL with W46L
notes: as for B1
- Kd: 0.058 nM

B36: A139 (antibody, human IgG1, V domains shown)
VH: B2 VH with K38R, A68V
VL: B1 VL with P45L, W46L, E91S, G92R
notes: as for B1
- Kd: 0.074 nM

B37: A151 (antibody, human IgG1, V domains shown)
VH: B1 VH with I48M, D52E, G66V, V68A, M70I
VL: B1 VL with W46L
notes: as for B1
- Kd: 0.057 nM

B41: A146 (antibody, human IgG1, V domains shown)
VH: B1 VH with R38K, I48M, D52E
VL: B1 VL with W46L
notes: as for B1
- Kd: 0.065 nM

B43: A133 (antibody, human IgG1, V domains shown)
VH: B1 VH with I48M, D52E, G66V
VL: B1 VL with W46L, E91K
notes: as for B1
- Kd: 0.058 nM

B44: A135 (antibody, human IgG1, V domains shown)
VH: B1 VH with I48M, D52E, V79A
VL: B1 VL with W46L, E91K
notes: as for B1
- Kd: 0.056 nM

B45: A154 (antibody, human IgG1, V domains shown)
VH: B1 VH with R38K, I48M, D52E
VL: B1 VL
notes: as for B1
- Kd: 0.066 nM

B46: A140 (antibody, human IgG1, V domains shown)
VH: B2 VH with K38R, A68V
VL: B1 VL with P45L, W46L
notes: as for B1
- Kd: 0.073 nM

Continued, values first:

- Kd: 0.125 nM
B5: A39 (antibody, human IgG1, V domains shown)
VH: B2 VH with M48I, L81M
VL: B1 VL with L13A, L21M, I57V, F70Y, L77V, E91S
notes: as for B1

- Kd: 0.016 nM
B10: A41 (antibody, human IgG1, V domains shown)
VH: B2 VH with M48I, A68V
VL: B1 VL with L13A, L21M, I57V, F70Y, L77V, E91S
notes: as for B1

- Kd: 0.104 nM
B13: A123 (antibody, human IgG1, V domains shown)
VH: B2 VH with K38R, M48I, A68V, T72R
VL: B1 VL with P45L, W46L, E91K
notes: as for B1

- Kd: 0.063 nM
B15: A147 (antibody, human IgG1, V domains shown)
VH: B1 VH with R38K, A40R, I48M, D52E
VL: B1 VL with W46L
notes: as for B1

- Kd: 0.091 nM
B17: A124 (antibody, human IgG1, V domains shown)
VH: B2 VH with K38R, M48I, A68V
VL: B1 VL with P45L, W46L, E91K
notes: as for B1

- Kd: 0.087 nM
B18: A119 (antibody, human IgG1, V domains shown)
VH: B1 VH with I48M, D52E, I58T
VL: B1 VL
notes: as for B1

- Kd: 0.126 nM
B21: A142 (antibody, human IgG1, V domains shown)
VH: B2 VH with K38R, A68V, T72R
VL: B1 VL with P45L, W46L
notes: as for B1

- Kd: 0.055 nM
B22: A134 (antibody, human IgG1, V domains shown)
VH: B1 VH with I48M, D52E, G66V, V68A
VL: B1 VL with W46L, E91K
notes: as for B1

- Kd: 0.07 nM
B24: A145 (antibody, human IgG1, V domains shown)
VH: B1 VH with I48M, D52E, V79A
VL: B1 VL with W46L
notes: as for B1

- Kd: 0.099 nM
B26: A129 (antibody, human IgG1, V domains shown)
VH: B2 VH with K38R, A68V
VL: B1 VL with P45L, W46L, E91K
notes: as for B1

- Kd: 0.049 nM
B29: A153 (antibody, human IgG1, V domains shown)
VH: B1 VH with I48M, D52E, V79A
VL: B1 VL
notes: as for B1

- Kd: 0.085 nM
B31: A120 (antibody, human IgG1, V domains shown)
VH: B1 VH with I48M, D52E, I58V
VL: B1 VL
notes: as for B1

- Kd: 0.111 nM
B38: A128 (antibody, human IgG1, V domains shown)
VH: B2 VH with K38R, A68V, T72R
VL: B1 VL with P45L, W46L, E91K
notes: as for B1

- Kd: 0.106 nM
B39: A121 (antibody, human IgG1, V domains shown)
VH: B2 VH with K38R
VL: B1 VL with P45L, W46L, E91K
notes: as for B1

- Kd: 0.069 nM
B40: A138 (antibody, human IgG1, V domains shown)
VH: B1 VH with I48M, D52E, G66V, V68A
VL: B1 VL with P45L, W46L, E91S, G92R
notes: as for B1

- Kd: 0.112 nM
B42: A122 (antibody, human IgG1, V domains shown)
VH: B2 VH with K38R, M48I, T72R
VL: B1 VL with P45L, W46L, E91K
notes: as for B1
